Reference: article doi:10.1101/2021.01.14.426755 (bioRxiv, 2021)

Target: T1, Rad3 (yeast (endogenous, purified from yeast), UniProt P06839 1-778)
T1 sequence: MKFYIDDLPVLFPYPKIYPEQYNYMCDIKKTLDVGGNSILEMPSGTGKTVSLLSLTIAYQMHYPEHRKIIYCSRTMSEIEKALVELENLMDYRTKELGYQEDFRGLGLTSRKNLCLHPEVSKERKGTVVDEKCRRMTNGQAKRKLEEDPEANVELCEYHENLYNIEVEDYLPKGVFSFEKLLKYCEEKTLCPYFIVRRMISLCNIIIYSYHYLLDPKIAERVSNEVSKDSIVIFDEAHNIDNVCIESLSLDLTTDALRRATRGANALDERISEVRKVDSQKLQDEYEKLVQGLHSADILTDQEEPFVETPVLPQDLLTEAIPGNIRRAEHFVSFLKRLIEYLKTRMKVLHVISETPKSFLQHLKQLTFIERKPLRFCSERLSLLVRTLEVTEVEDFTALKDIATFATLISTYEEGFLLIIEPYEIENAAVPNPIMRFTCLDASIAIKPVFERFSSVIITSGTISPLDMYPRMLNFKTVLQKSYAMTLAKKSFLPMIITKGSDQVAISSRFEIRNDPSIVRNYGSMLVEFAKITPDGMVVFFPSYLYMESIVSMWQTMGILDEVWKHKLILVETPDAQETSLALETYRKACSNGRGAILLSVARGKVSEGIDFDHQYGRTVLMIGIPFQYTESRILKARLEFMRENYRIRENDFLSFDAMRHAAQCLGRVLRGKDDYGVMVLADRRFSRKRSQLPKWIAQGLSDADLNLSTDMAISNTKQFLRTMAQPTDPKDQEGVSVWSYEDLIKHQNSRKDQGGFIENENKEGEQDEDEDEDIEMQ
Assay: cryo-EM structure

B1: Ssl1 (natural protein)
chain: MAPVVISESEEDEDRVAITRRTKRQVHFDGEGDDRVDQQQQQHSSSHRDRDKHVQRKKKKRLSNRNLQGSNGGYAWEDEIKRSWDLVKVDDEGDMASLVASIVEARKKRTAKKNITPYQRGIIRSLILTLDCSEAMLEKDLRPNRHAMIIQYAIDFVHEFFDQNPISQMGIIIMRNGLAQLVSQVSGNPQDHIDALKSIRKQEPKGNPSLQNALEMARGLLLPVPAHCTREVLIVFGSLSTTDPGDIHQTIDSLVSEKIRVKVLGLSAQVAICKELCKATNYGDESFYKILLDETHLKELFNEAVTPLPVNKINKGFTLVKMGFPTRIFEDTPTFCSCHSKLVYGGYFCPNCHSKVCSLPTVCPCCDLMLILSTHLARSYHHLMPLKTFAEVPTTEKFRSEDCFSCQSRFPILKNHKNGKLLTSSRYRCEDCKQEFCVDCDVFIHEILHNCPGCESKPVIT
- binding result: binds
